Source: US20170082633A1 (WHITEHEAD INSTITUTE FOR BIOMEDICAL RESEARCH, published 2017)

How the values were obtained:
endogenous SLC38A9 = target: T1, endogenous SLC38A9 (human, UniProt Q8NBW4 1-561, limits assumed); assay: FLAG IP from HEK-293T cells stably expressing the bait, - or + amino acids; immunoblot
T1 construct: Endogenous protein of HEK-293T cells, found by LC-MS-MS or immunoblot; also called SLC38A9 (NCBI Gene ID: 153129)
T1 sequence: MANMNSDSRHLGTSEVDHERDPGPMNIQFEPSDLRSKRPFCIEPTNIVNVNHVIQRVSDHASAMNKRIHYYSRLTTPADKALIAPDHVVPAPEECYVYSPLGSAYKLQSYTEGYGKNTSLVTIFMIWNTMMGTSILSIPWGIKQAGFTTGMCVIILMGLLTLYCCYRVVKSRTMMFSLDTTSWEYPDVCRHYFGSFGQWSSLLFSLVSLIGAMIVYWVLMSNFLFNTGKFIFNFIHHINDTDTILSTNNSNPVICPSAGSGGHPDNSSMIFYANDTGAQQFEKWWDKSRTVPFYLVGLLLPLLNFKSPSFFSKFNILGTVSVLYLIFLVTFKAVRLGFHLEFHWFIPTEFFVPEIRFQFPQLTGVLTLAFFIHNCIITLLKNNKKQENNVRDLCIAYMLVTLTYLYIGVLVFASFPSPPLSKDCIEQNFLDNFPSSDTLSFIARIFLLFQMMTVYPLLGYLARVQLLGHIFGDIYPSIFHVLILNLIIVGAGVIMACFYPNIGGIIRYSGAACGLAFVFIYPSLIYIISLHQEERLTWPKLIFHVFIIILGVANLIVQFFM

raptor = target: T2, raptor (human (HEK-293T cells), UniProt Q8N122); assay: FLAG IP from transfected HEK-293T cells, immunoblot
T2 construct: endogenous; Named only on the sheet
T2 sequence (Q8N122 whole entry): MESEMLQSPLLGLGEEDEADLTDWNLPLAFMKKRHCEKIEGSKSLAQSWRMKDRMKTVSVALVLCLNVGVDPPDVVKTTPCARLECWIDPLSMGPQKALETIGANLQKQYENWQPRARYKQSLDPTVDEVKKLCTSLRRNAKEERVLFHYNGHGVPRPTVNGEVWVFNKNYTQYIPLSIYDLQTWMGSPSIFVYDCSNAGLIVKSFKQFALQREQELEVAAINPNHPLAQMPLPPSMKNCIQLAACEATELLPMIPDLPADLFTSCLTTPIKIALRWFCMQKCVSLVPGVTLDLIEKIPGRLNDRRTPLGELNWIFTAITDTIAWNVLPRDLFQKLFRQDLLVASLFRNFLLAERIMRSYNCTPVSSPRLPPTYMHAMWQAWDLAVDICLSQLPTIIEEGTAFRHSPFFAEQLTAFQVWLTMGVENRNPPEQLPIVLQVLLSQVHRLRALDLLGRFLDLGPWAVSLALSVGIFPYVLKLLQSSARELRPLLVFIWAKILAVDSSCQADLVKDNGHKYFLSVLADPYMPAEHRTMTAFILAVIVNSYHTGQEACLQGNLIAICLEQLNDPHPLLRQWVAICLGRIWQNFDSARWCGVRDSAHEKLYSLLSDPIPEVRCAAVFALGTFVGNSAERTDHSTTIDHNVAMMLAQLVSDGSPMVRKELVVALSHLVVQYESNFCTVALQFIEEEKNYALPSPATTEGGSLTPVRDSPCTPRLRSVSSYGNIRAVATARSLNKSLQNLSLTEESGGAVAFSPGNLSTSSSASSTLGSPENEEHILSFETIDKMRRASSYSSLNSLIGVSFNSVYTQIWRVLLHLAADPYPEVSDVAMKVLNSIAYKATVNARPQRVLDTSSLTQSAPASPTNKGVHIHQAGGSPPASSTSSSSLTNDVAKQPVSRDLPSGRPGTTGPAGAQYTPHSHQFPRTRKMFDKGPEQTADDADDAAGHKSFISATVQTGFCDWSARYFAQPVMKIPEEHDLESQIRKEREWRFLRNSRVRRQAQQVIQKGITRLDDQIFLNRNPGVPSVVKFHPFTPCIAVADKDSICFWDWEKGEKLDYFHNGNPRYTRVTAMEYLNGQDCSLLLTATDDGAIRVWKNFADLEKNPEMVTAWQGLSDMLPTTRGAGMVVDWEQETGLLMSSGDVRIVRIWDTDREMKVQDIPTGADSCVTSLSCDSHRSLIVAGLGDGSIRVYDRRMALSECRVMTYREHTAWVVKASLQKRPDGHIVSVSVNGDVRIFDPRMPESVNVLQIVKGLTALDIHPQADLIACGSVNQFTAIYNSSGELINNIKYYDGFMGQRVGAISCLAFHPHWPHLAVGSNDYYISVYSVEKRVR
Procedure: HEK-293T cells were cultured in DMEM supplemented with 10% inactivated fetal bovine serum, penicillin (100 IU/mL), and streptomycin (100 μg/mL) and maintained at 37° C. and 5% CO₂. Two million HEK-293T cells were plated in 10 cm culture dishes.
Transfection mixes were taken up to a total of 5 μg of DNA using empty pRK5. HEK-293T cells stably expressing FLAG-tagged proteins were rinsed once with ice-cold PBS and lysed in ice-cold lysis buffer (40 mM HEPES pH 7.4, 1% Triton X-100, 10 mM β-glycerol phosphate, 10 mM pyrophosphate, 2.5 mM MgC12 and 1 tablet of EDTA-free protease inhibitor (Roche) per 25 ml buffer). The soluble fractions from cell lysates were isolated by centrifugation at 13,000 rpm for 10 min in a microcentrifuge. […] Immunoprecipitates were washed three times with lysis buffer containing 500 mM NaCl. Immunoprecipitated proteins were denatured by the addition of 50 μL of sample buffer and incubation at RT for 30 min. It is critical that the samples containing SLC38A9 are neither boiled nor frozen prior to resolution by SDS-PAGE and analysis by immunoblotting. A similar protocol was employed when preparing samples for mass spectrometry.

B1: FLAG-metap2 (enzyme)
chain: DYKDDDDKMAGVEEVAASGSHLNGDLDPDDREEGAASTAEEAAKKKRRKKKKSKGPSAAGEQEPDKESGASVDEVARQLERSALEDKERDEDDEDGDGDGDGATGKKKKKKKKKRGPKVQTDPPSVPICDLYPNGVFPKGQECEYPPTQDGRTAAWRTTSEEKKALDQASEEIWNDFREAAEAHRQVRKYVMSWIKPGMTMIEICEKLEDCSRKLIKENGLNAGLAFPTGCSLNNCAAHYTPNAGDTTVLQYDDICKIDFGTHISGRIIDCAFTVTFNPKYDTLLKAVKDATNTGIKCAGIDVRLCDVGEAIQEVMESYEVEIDGKTYQVKPIRNLNGHSIGQYRIHAGKTVPIVKGGEATRMEEGEVYAIETFGSTGKGVVHDDMECSHYMKNFDVGHVPIRLPRTKHLLNVINENFGTLAFCRRWLDRLGESKYLMALKNLCDLGIVDPYPPLCDIKGSYTAQFEHTILLRPTCKEVVSRGDDY
notes: Control bait; also called control protein Metap2
- binding result (endogenous SLC38A9): no binding
- binding result (raptor): no binding
